Results taken from the supplement of paper PMC9170038.

Tested on: K4 kissing-loop RNA reporter
Assay: apparent KD of K4 kissing-loop reporter; higher = weaker reporter binding
Settings: Eterna round: R107
Procedure: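 RNA-MaP round R107: designed RNA switches with theophylline, tryptophan, arginine or FMN aptamers are transcribed on-chip within common flanks. They are titrated with a labelled K4 kissing-loop RNA reporter in RNA-MaP buffer (100 mM Tris pH 7.5, 80 mM KCl, 4 mM MgCl2), without ligand or with the indicated ligand. Median apparent KD per design.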

[1] = input ligand: theophylline 20 uM
[2] = input ligand: tryptophan 2.4 mM
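Note: bound reporter read as fluorescence of individual clusters on recovered sequencing chips by microscopy, with normalized cluster intensities fitted with a binding model.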

| Sequence | apparent KD of K4 kissing-loop reporter (input ligand: FMN 200 uM) [nM] | apparent KD of K4 kissing-loop reporter (input ligand: arginine 13.2 mM) [nM] | apparent KD of K4 kissing-loop reporter (input ligand: none) [nM] | apparent KD of K4 kissing-loop reporter [1] [nM] | apparent KD of K4 kissing-loop reporter [2] [nM] |
| --- | --- | --- | --- | --- | --- |
| AGUGGACGUUACCGGAGUGAUGUUUCGGAUACCAGACACGAAAGUGUCCCUUGGCAGCCGUAGUGAUGUUACGGAGUUCACUAAA [KL-XTheo-A12 #KL 2] | 125 | 61.5 | 103 | 88.7 | 85.1 |
| AGUGUUAGGUUAGAUACCAGCCGUCUGUAGAUAAUCCUCAGACCGCCAGUGAUGUUGGCAGGCCCUUGGCAGCUAACAGAACAGA [Orbediqu] | 238 | 206 | 210 | 154 | 214 |
| AGUGUUAGGUUAGAUACCAGCCGUCUGUGAGUAACCCACAGACCGCCAGUGAUGUUGGCAGGCCCUUGGCAGCUAACAGGACAGA [Anesarerza] | 211 | 226 | 210 | 152 | 211 |
| AGUUAUGUAUCAGGAUAUUAGUGAUGUUUGUUUUUGUUAGUGAUGUUGAUAUUUGUUUUAUGUAUUUAAGAAGGGAUUGAGAUGU [qsszmullin] | 68.2 | 20.5 | 39.1 | 29.4 | 52.4 |
| AUACGCGAUAGCGUAUAUAACUUUUCAGAAGGAGCGUGGAAGUACACAGGUAGGUCGCUGAAUAUAGGACUAGUGAUGUUAGUUA [JR_Nu_SSArginiA_Sub025] | 195 | 220 | 235 | 218 | 186 |
| AUAGUGAGCUCGGCCGCCACUCCACUAUGUCAACAGUAGCUCUGUCAUAACCAGUGAUGUUGGUUGAGGACCGGGAGUUAAGACU [theeternabot_exclusion_KL_Trp_B_34] | 193 | 164 | 198 | 195 | 201 |
| AUCAUUAGUUCGGCCGCCACUCCAGUGAUGUUGGAGGGACGCAUAAUAUGCGCGCGGCCAACUAGGAGGACCGGGAACUUUAAGC [Intionge] | 120 | 122 | 118 | 126 | 103 |
| AUGACGGGUAGUGAUGUUAUCCACGAUGGGAAGGAUAUCAACCGUGUGAGAAGGUCCUUAUCGGUGCGGCACAUGCAGGUACUAC [theeternabot_sameState_KL_FMN_A_41] | 215 | 264 | 346 | 452 | 268 |
| AUGGACUCUUCGGAGUCCGCCUUAAGGGAUACCAGUGAUGUUGGUCACCCUUGGCAGCCUAGAAAGGAAGCCACCAAAGGUGGCA [Omei v1 mod #OpenEnded #Sliding] | 105 | 114 | 128 | 160 | 101 |
| AUGGGUUGUUGAAGGAGCGCCGCCAGUGAUGUUGGGAGUUAGAUACCAGUGAUGUUGGGCCGGCAGGUAGGUCGCGGCGAUUUAU [Exclusion Arginine B GF 19] | 347 | 170 | 484 | 332 | 344 |
| AUGUAUGAAUUAGGAUAUCGUGAGCCAUGCAUAUAUAUGAUAAAUGGAUAUGUCGUAGUGAUGUUACGAGAAGGAGUGUGGAGUA [KL-XFMN-B2] | 69.2 | 73.6 | 74.7 | 90 | 50.6 |
| AUGUGGAGCGACGUUUCGGGAUAUCGGGAAGGAGCGCUGAUAACGGCAGGUAGGUCGCCUGGUCCAGUGAUGUUGGGCAUGCAUU [Exclusion Arg A GF 24] | 150 | 135 | 270 | 185 | 155 |
| AUUAAUUUCAGAGGAUAUCGUUAUUUUUUUUAUUUUAUUCAUUUAUGCAGUGAUGUUGCUAUUAUUCGAGAAGGCUGAUUUAUAA [JR_ExcFMNB_Sub005] | 97.9 | 126 | 62.9 | 146 | 74.1 |
| AUUCGUUUUUGUGAUACCAGACAUGUGAGUGAUGUUUACAUAUAUAUUUAAUAUUUAGCUGUCCCUUGGCAGCACUGUUUAUUUA [JR_ExcTheophyB_Sub003] | 343 | 384 | 393 | 444 | 291 |
| AUUUAAUGUAUAGAUUAUAUACAUAAUUCAGAGGAUAUGCGAAGAAGCAGAAGGCUGGUUGCAGUGAUGUUGCUUUUAUAAUUUA [JR_SSFMNA_Sub009] | 32.8 | 152 | 85.9 | 171 | 59.9 |
| AUUUAAUGUAUAGAUUAUAUACAUUAUUCAGAGGAUAUGCUUUGAAGCAGAAGGCUGGAUGUAGUGAUGUUGCAAUUUUAAUUUA [JR_SSFMNA_Sub006] | 214 | 265 | 236 | 250 | 163 |
| AUUUAAUUAACUGAUACCAGACUUUUUGUUUUGAUAAUUACUAGUGAUGUUAGUGUUUCUGUCCCUUGGCAGCAGUAUCUACUUA [JR_ExcTheophyB_Sub017] | 121 | 177 | 122 | 209 | 106 |
| AUUUAGACGAGUGAUGUUCGUGAUAUUACAGAGGAUAUGCUUAAAAGCAGAAGGCUGUAUUUAUAUUUGUUAUGUAAUUUUAAAA [JR_ExcFMNA_Sub005] | 79.9 | 95.4 | 78 | 95.5 | 62.7 |
| AUUUUGGUUUAGAGUGAUGUUCCUUGUAUUCGAGGACCGGUACGGCCGCCACUCGAAUAGAAAAGAAAAGAAAUGUUUGAUGUUU [BDazzled - #6 SS Tryptophan A] | 551 | 193 | 537 | 274 | 393 |
| CACGAUGAAUUCUCUAGGAGUGAUGUUUUUCGAGGACCGGUACGGCCGCCACUCGGACGACGAGUGUGGUAGCGGGCUGAAGACU [zgullin] | 429 | 262 | 643 | 239 | 561 |
| CACUGGGCGAGUGAUGUUCGCUCACGUGAUACCAGUGCCAUCCAACACCCUUGGCAGCAUGCGGGCAGUGAUGUUGUCCAAAGAA [Exclusion Theophylline A GF9] | 204 | 187 | 207 | 208 | 184 |
| CAGAUCACAGAGUGAUGUUCUGUGUCCGAAGGAGCGCGCGAGAGCGCAGGUAGGUCGCGGAUACAGUUGACGUACCAUCUAGACA [Arg A Ex t3b] | 306 | 244 | 278 | 246 | 269 |

| Sequence | apparent KD of K4 kissing-loop reporter (input ligand: FMN 200 uM) [nM] | apparent KD of K4 kissing-loop reporter (input ligand: arginine 13.2 mM) [nM] | apparent KD of K4 kissing-loop reporter (input ligand: none) [nM] | apparent KD of K4 kissing-loop reporter [1] [nM] | apparent KD of K4 kissing-loop reporter [2] [nM] |
| --- | --- | --- | --- | --- | --- |
| CAGCCCAAAUGGCGAGAAGUGUUCCUUAGUCGAGGACCGGUACGGCCGCCACUCGCUCUAAACAUUAGGAGUGAUGUUCCAUUAG | 168 | 258 | 215 | 335 | 90.6 |
| CAUACGCAUGGAGGAUAUGAGAUUACUCAUGUCAUUUAAUAUUCUCAGUGAUGUUGAGAUUUAGGCUCAGAAGGCCAUGUGUAUG [Ex FMN B 17] | 355 | 514 | 630 | 534 | 525 |
| CAUACGCAUGGAGGAUAUGAGAUUUCUCAUAUUAUUUAAUAUUCUCAGUGAUGUUGAGAUAUAAACUCAGAAGGCCAUGUGUAUG [Ex FMN B 2] | 340 | 198 | 196 | 245 | 215 |
| CAUAGGAAACUAUGUAUCUCUCUUACUGAAGGAGCGCGUGAAAACGCAGGUAGGUCGCAGAAUUUAAAAGAGAGUGAUGUUCUCU [Ex Arginine A K4 8] | 358 | 253 | 332 | 247 | 301 |
| CAUCUGGACCAAGGAUAUGUGGGCAUAAUAAAAUUACCACCUUAUUUGCAGUAAGUGAUGUUUAACACAGAAGGUGGACAUAGAC [theeternabot_exclusion_KL_FMN_B_10] | 1170 | 725 | 1170 | 701 | 822 |
| CAUGAGUGAUGUUCGUGCGCUUGGUCGAAGCGAGGACCGGUACGGCCGCCACUCGCUAUGGCGGCAUCUACCAGUGAUGUUGGUG [Same State Tryptophan A GF 2] | 241 | 171 | 228 | 202 | 208 |
| CCAGGACGAUGAGGAGGAUGAAUUACUGAAGGAGCGCAUAUGGUUGCAGGUAGGUCGCGGUGAACAAGUAUAGUGAUGUUAUAUC [SSArgA.S] | 365 | 971 | 538 | 321 | 321 |
| CCAGGACGAUGAGGAUGAUGAAUUACUGAAGGAGCGCAUAUGGUUGCAGGUAGGUCGCGGUGAACAAGUAUAGUGAUGUUAUACC [SSArgA.U] | 327 | 282 | 340 | 515 | 348 |
| CCAUCGCUAUUCGAUACCAGCUCCUUAGUGAUGUUAAGGUUUUACCCUCUGUAGGAGGGAAGCCCUUGGCAGCGAGUAGUGAUGG [#03 K4 Theophylline B Same State] | 1270 | 802 | 948 | 623 | 1370 |
| CCAUCGCUAUUCGAUACCAGUCAUUAAAUCUUUGGUUUAAUAAAGGAGUGAUGUUCCCAAGACCCUUGGCAGCGAAUAGUGAUGG [Theophylline B K4 9] | 213 | 183 | 198 | 166 | 207 |
| CCAUCGCUGUUCGAUACCAGUCAUUUUUUAUUUUAUUUUUUUUUUGGAGUGAUGUUCCAAGACCCUUGGCAGCGGAUAGUGAUGG [whbob_SS_Theo_B_th80] | 116 | 143 | 114 | 145 | 111 |
| CCAUUCUUUUACGAUACCAGUUUAAUAUAUUUAUUCAAAACCCUUGCCGAGUGAUGUUCGGACCCUUGGCAGCGUUUGCGAGAGG [ttedstkmullin] | 455 | 376 | 465 | 434 | 356 |
| CCCAAGGGCCUACCGGUAUUAUUAACGGAUACCAGAGGCGAAAGCCUCCCUUGGCAGCCGGGUGUAGUGAUGUUACUCCGGUAGU | 83.4 | 64.7 | 70.2 | 63.2 | 78.1 |
| CCCUCACGAGUGAUGUUCGUAGGGUACAGUCAGGAUAUCAUGCGGUUGAGAAGGGACAGAGAGGGCGGCCACGGGUUGCUCCUCU [Lariusteza] | 183 | 259 | 386 | 345 | 305 |
| CCGAUACAUUAUUCUACGGCCGAGAGUGAUACCAGCCGUAUUUGUGGCCCUUGGCAGCGCAGAUGCAGUGAUGUUGCAUACUUGU [Same State Theophylline A GF 20] | 68.7 | 93.7 | 78.1 | 96.6 | 63.5 |
| CCGCCAUCAUCAGAUACCAGACUGAUGGCGGUAACCGCCAAGCGAGUGAUGUUCGCAUCAGUCCCUUGGCAGCUGAUGAAGACUG [Theo B SS t4] | 255 | 82.4 | 110 | 104 | 154 |
| CCGGCCCAGCCGGAUACCAGUGCGCCGCAGGGAACGGCGGGCCCAGAGUGAUGUUCGGGACACCCUUGGCAGCCGCCUGGGUCGU [#2 Same State - Theophylline B Attempt #28 (HarryS)] | 414 | 262 | 365 | 258 | 274 |
| CCGUGGAGUGAUGUUCCACGUUCUACGGAUACCAGCUUUGCCAAAGGCCCUUGGCAGCCGCACCUUGCAGUGAUGUUGUGAGGCU [Same State Theophylline A Gf7] | 329 | 268 | 305 | 302 | 274 |
| CCGUGGAGUGAUGUUCCACGUUCUACGGAUACCAGUUGUGCCAGCGGCCCUUGGCAGCCGCACCUUGCAGUGAUGUUGUGAGGCU [Same State Theophylline A Gf 6] | 238 | 210 | 225 | 229 | 198 |
| CCUAUCUCAUACGAUACCAGUCAAUGAUCUUUGAUCAAUGCCAUCACCGAGUGAUGUUCGGACCCUUGGCAGCGUAUGAGAUAGG [whbob_Ex_Theo_B_sa103] | 277 | 225 | 267 | 452 | 247 |
| CCUAUCUCGUACGAUACCAGUCAAUGAUCUUUGAUCAAUGCCAUCACCGAGUGAUGUUCGGACCCUUGGCAGCGUAUGAGAUGGG [whbob_Ex_Theo_B_sa105] | 272 | 207 | 251 | 386 | 242 |
